# Data: publication PMC3296735
# Changes are numbered by the printed parent chain.
# Assays:
# [1] = biological target: human GLP1R with C-terminal V5 epitope (GLP1R-V5) (human) (UniProt P43220)
# [2] = biological target: N63Q-GLP1R-V5 (human) (UniProt P43220)
# [3] = biological target: N63,82,115Q-GLP-1R-V5 (human) (UniProt P43220)
# [4] = biological target: N115Q-GLP1R-V5 (human) (UniProt P43220)
# [5] = biological target: N63,82Q-GLP-1R-V5 (human) (UniProt P43220)
# [6] = biological target: N82Q-GLP1R-V5 (human) (UniProt P43220)
# [7] = biological target: T1, human GIPR with C-terminal V5 epitope (GIPR-V5) (human) (UniProt P48546)
# T1 sequence: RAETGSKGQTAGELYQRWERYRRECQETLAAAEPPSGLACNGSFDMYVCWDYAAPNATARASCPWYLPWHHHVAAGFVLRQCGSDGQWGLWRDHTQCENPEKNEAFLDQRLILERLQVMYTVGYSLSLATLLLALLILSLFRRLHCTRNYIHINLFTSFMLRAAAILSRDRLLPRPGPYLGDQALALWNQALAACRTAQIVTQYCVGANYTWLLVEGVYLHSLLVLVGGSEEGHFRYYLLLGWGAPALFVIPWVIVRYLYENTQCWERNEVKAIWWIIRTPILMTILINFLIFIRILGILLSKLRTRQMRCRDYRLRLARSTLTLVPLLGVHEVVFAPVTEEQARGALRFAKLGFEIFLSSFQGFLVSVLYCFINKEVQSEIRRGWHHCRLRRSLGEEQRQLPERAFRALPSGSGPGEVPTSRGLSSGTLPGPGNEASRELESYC
# [8] = biological target: T2, N77Q-GIPR-V5 (human) (UniProt P48546)
# T2 sequence: T1 sequence with N56Q
# [9] = biological target: T3, N62Q-GIPR-V5 (human) (UniProt P48546)
# T3 sequence: T1 sequence with N41Q
# [10] = biological target: T1, human GIPR with C-terminal V5 epitope (GIPR-V5) (human); remark: listed apart in the source
"EC50 of GLP-1 for cAMP production (LANCE TR-FRET, 30 min stimulation) in CHO cells expressing the receptor; series with the double and triple mutants [1] [nM]","EC50 of GLP-1 for cAMP production (LANCE TR-FRET, 30 min stimulation) in CHO cells expressing the receptor; series with the single site mutants [1] [nM]","EC50 of GLP-1 for cAMP production (LANCE TR-FRET, 30 min stimulation) in CHO cells expressing the receptor [2] [nM]","EC50 of GLP-1 for cAMP production (LANCE TR-FRET, 30 min stimulation) in CHO cells expressing the receptor [3] [nM]","EC50 of GLP-1 for cAMP production (LANCE TR-FRET, 30 min stimulation) in CHO cells expressing the receptor [4] [nM]","EC50 of GLP-1 for cAMP production (LANCE TR-FRET, 30 min stimulation) in CHO cells expressing the receptor [5] [nM]","EC50 of GLP-1 for cAMP production (LANCE TR-FRET, 30 min stimulation) in CHO cells expressing the receptor [6] [nM]","EC50 of GIP for cAMP production (LANCE TR-FRET, 30 min stimulation) in CHO cells expressing the receptor [7] [nM]","EC50 of GIP for cAMP production (LANCE TR-FRET, 30 min stimulation) in CHO cells expressing the receptor [8] [nM]","EC50 of GIP for cAMP production (LANCE TR-FRET, 30 min stimulation) in CHO cells expressing the receptor [9] [nM]",EC50 of GIP for cAMP production (LANCE TR-FRET) in CHO cells expressing the receptor; series of Figure 8A [10] [nM],Substance
0.22,0.41,0.63,2.7,0.72,0.58,0.71,–,–,–,–,GLP-1 7–36 amide (ligand)
–,–,–,–,–,–,–,0.082,3.1,0.1,0.034,GIP peptide (Glucose-dependent Insulinotropic Polypeptide) (from UniProt P09681 52-93) (ligand)
